Our source for the protein stability index values is the supplement of paper PMC9732359.

The series can be described thus: protein stability index of a GFP-peptide fusion (yeast GPS) (PSI 1-4); higher = more stable; sorted into four equal gates, so the index is relative within each strain. The essentials: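 The protein stability index combines read frequencies across sorting gates, each weighted by its gate number and then summed. To obtain those frequencies, a pooled yeast library of GFP fusions to tiled 17-residue yeast protein peptides, on a plasmid also expressing Cherry, was grown to mid-log phase in leucine-free medium. The cells were sorted into four equal gates by GFP/Cherry ratio before plasmid amplification by PCR and Illumina sequencing.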

± gives the uncertainty stated by the source.

Consider IAPRPLDLLRPVVRAPT [RPL13A], for which the protein stability index is 2.55 ± 0.08 (doa10∆), 3.15 ± 0.089 (pdr5∆), 2.1 ± 0.12 (san1∆) and 2.7 ± 0.051 (ubr1∆).
For DVLHPNRANVSKDELRE [RPS24A], the protein stability index was found to be 3.35 ± 0.086 (doa10∆), 3.29 ± 0.11 (pdr5∆), 3.19 ± 0.092 (san1∆) and 3.1 ± 0.086 (ubr1∆).
With DHDDSTDDADDHINWEH [NSL1], the protein stability index is, setting by setting: (doa10∆) 3.31 ± 0.088; (pdr5∆) 3.31 ± 0.094; (san1∆) 3.26 ± 0.056; (ubr1∆) 3.35 ± 0.04.
With YGEAPTSPGFGVSSPGF [RPO21], the protein stability index turned out to be 3.06 ± 0.14 (doa10∆), 3.45 ± 0.14 (pdr5∆), 2.93 ± 0.17 (san1∆) and 3.17 ± 0.054 (ubr1∆).
Sequence EIYTVEDRPPEYWAQRK [ISW2] registered a protein stability index (doa10∆) of 3.44 ± 0.23, a protein stability index (pdr5∆) of 3.14 ± 0.14 and a protein stability index (ubr1∆) of 3.31 ± 0.13.
For KMEKKKSSSLSLESFMK [SNM1], the protein stability index by setting is: (doa10∆) 3.06 ± 0.1; (pdr5∆) 3.32 ± 0.12; (san1∆) 2.93 ± 0.14; (ubr1∆) 2.97 ± 0.084.
For the sequence MSSQIIDRPKHELSRAE [SMD2], the protein stability index is, setting by setting: (doa10∆) 3.14 ± 0.093; (pdr5∆) 3.46 ± 0.12; (san1∆) 3.2 ± 0.11; (ubr1∆) 3.25 ± 0.11.
As for TASFIPLDTIETELPTL [SMC1], the protein stability index (doa10∆) came out at 2.58 ± 0.066, the protein stability index (pdr5∆) came out at 2.65 ± 0.078, the protein stability index (san1∆) is 2.56 ± 0.066 and the protein stability index (ubr1∆) came out at 2.53 ± 0.051.
LQETLNKSTSSEAEYSK [YIL149C/MLP2]: the protein stability index (doa10∆) worked out at 3.11 ± 0.08, the protein stability index (pdr5∆) came to 2.9 ± 0.081, the protein stability index (san1∆) was 3.27 ± 0.062 and the protein stability index (ubr1∆) was determined as 3.28 ± 0.068.
For the sequence LAAVPAAGPASAGGAAA [RPP2A], the protein stability index runs as follows: (doa10∆) 2.35 ± 0.085; (pdr5∆) 1.58 ± 0.063; (san1∆) 1.4 ± 0.26; (ubr1∆) 1.61 ± 0.071.
On to KSCEPVSISTSVKPHVV [SIR4], for which the protein stability index runs as follows: (doa10∆) 2.6 ± 0.069; (pdr5∆) 2.97 ± 0.077; (san1∆) 2.28 ± 0.11; (ubr1∆) 2.42 ± 0.045.
Take VEDVSQNAADLQQICRV [RPL9A]: the protein stability index is, setting by setting: (doa10∆) 2.96 ± 0.096; (pdr5∆) 3.42 ± 0.047; (san1∆) 2.76 ± 0.093; (ubr1∆) 3.03 ± 0.051.
Take EVNSLLLQVNKTFCEDP [GRR1]: the protein stability index amounted to 3.27 ± 0.099 (doa10∆), 3.34 ± 0.066 (pdr5∆), 3.22 ± 0.054 (san1∆) and 3.24 ± 0.044 (ubr1∆).
Regarding GQLISLLFEDLFKKFNN [RET1], the protein stability index runs as follows: (doa10∆) 3.1 ± 0.17; (pdr5∆) 3.22 ± 0.23; (san1∆) 3.34 ± 0.15.
For KEEISDQKPIEHIKEGS [SWI3], the protein stability index is, setting by setting: (doa10∆) 2.96 ± 0.053; (pdr5∆) 2.82 ± 0.051; (san1∆) 2.88 ± 0.063; (ubr1∆) 3 ± 0.04.
Take KAIELLEKALQGATNEG [SRP72]: the protein stability index is 1.14 ± 0.18 (pdr5∆) and 1.18 ± 0.22 (ubr1∆).
In turn, YYSRITLLRLNELLDLT [RPN5] yielded a protein stability index (doa10∆) of 2.61 ± 0.067, a protein stability index (pdr5∆) of 1.77 ± 0.048, a protein stability index (san1∆) of 2.44 ± 0.065 and a protein stability index (ubr1∆) of 1.97 ± 0.072.
Take RLILLLNHRNKNQHRAA [RMP1]: the protein stability index was determined as 1.44 ± 0.09 (doa10∆), 1.51 ± 0.079 (pdr5∆), 1.34 ± 0.12 (san1∆) and 2.13 ± 0.089 (ubr1∆).
For VGKFLGYVSSLVEPSKV [FAS1], the protein stability index (doa10∆) is 1.71 ± 0.064, the protein stability index (pdr5∆) was found to be 2.14 ± 0.072, the protein stability index (san1∆) turned out to be 1.69 ± 0.12 and the protein stability index (ubr1∆) was 1.89 ± 0.052.
Take TTDKLRSMVRKWQTLIE [RPS1A]: the protein stability index is, setting by setting: (doa10∆) 2.72 ± 0.17; (pdr5∆) 2.46 ± 0.15.
Turning to LDAKNKVFVPPKSKSLP [RPO31], the protein stability index reads like this: (doa10∆) 2.71 ± 0.075; (pdr5∆) 3.03 ± 0.062; (san1∆) 3.37 ± 0.085; (ubr1∆) 2.72 ± 0.055.
As for KKSKRLDKVGKKKGGKK [LRP1], the protein stability index amounted to 3.16 ± 0.15 (doa10∆), 2.43 ± 0.27 (pdr5∆), 2.99 ± 0.12 (san1∆) and 3.24 ± 0.21 (ubr1∆).
YKGMASNDERIVKRLYE [BRR2]: the protein stability index is, setting by setting: (doa10∆) 3.33 ± 0.085; (pdr5∆) 3.47 ± 0.083; (san1∆) 3.31 ± 0.052; (ubr1∆) 3.51 ± 0.047.
On to SVPIWVDTSTELESMLE [RRP6], for which the protein stability index is, setting by setting: (doa10∆) 3.07 ± 0.12; (pdr5∆) 3.28 ± 0.16; (san1∆) 3.06 ± 0.063; (ubr1∆) 2.96 ± 0.085.
Take ILSGFHNAGPVAGAGAA [RPP1B]: the protein stability index reads like this: (doa10∆) 3.01 ± 0.072; (pdr5∆) 2.97 ± 0.061; (san1∆) 2.74 ± 0.07; (ubr1∆) 2.65 ± 0.099.
For PYEMYKYVHVSEVGNCS [FAS2], the protein stability index runs as follows: (doa10∆) 2.23 ± 0.056; (pdr5∆) 2.53 ± 0.062; (san1∆) 2.11 ± 0.068; (ubr1∆) 2.11 ± 0.048.
For the sequence RFYQLGVDLKLKYSKRR [CSN12], the protein stability index is, setting by setting: (doa10∆) 1.26 ± 0.12; (pdr5∆) 1.16 ± 0.1; (ubr1∆) 1.15 ± 0.088.
Consider NNNNNNNNNNNNDDNGN [MED2], for which the protein stability index (doa10∆) was 3.09 ± 0.038, the protein stability index (pdr5∆) amounted to 2.94 ± 0.033, the protein stability index (san1∆) was 3.227 ± 0.029 and the protein stability index (ubr1∆) was found to be 3.23 ± 0.034.
With ELDILNKGWKLQSLNES [SRB4], the protein stability index is 3.05 ± 0.21 (pdr5∆) and 3 ± 0.18 (san1∆).
As for PEELARILQQLKLDKII [RGR1], the protein stability index by setting is: (doa10∆) 2.51 ± 0.059; (pdr5∆) 1.49 ± 0.05; (san1∆) 3.15 ± 0.076; (ubr1∆) 2.72 ± 0.063.
For CDKSVCRKCYARLPPRA [RPL40A] the same measures were 2.5 ± 0.078, 2.93 ± 0.073, 2.56 ± 0.07 and 2.66 ± 0.062.
For the sequence IDDANVTRKQEDARRNP [RPC37], the protein stability index is 1.45 ± 0.15 (doa10∆), 1.8 ± 0.081 (pdr5∆), 2.06 ± 0.13 (san1∆) and 2.01 ± 0.1 (ubr1∆).
Turning to PSINLDPDNTSFSDENS [ESC2], the protein stability index was determined as 2.83 ± 0.072 (doa10∆), 2.93 ± 0.054 (pdr5∆), 2.58 ± 0.064 (san1∆) and 3.07 ± 0.029 (ubr1∆).
Consider ARIIRSELLARDIFQED [RGR1], for which the protein stability index is 2.26 ± 0.11 (doa10∆), 2.4 ± 0.087 (pdr5∆), 2.14 ± 0.12 (san1∆) and 2.19 ± 0.096 (ubr1∆).
Take GKEHIVAALVSLTEKFS [ECM29]: the protein stability index came out at 1.73 ± 0.047 (doa10∆), 1.95 ± 0.055 (pdr5∆), 1.58 ± 0.084 (san1∆) and 1.63 ± 0.042 (ubr1∆).
As to LNDVVSFLFSAIPLQQV [SWI1], the protein stability index is 1.83 ± 0.044 (doa10∆), 2.08 ± 0.039 (pdr5∆), 1.94 ± 0.057 (san1∆) and 1.75 ± 0.026 (ubr1∆).
Consider LGQERATDLAGPANNPN [PRP8], for which the protein stability index was determined as 2.94 ± 0.048 (doa10∆), 3.04 ± 0.068 (pdr5∆), 2.95 ± 0.053 (san1∆) and 3.17 ± 0.057 (ubr1∆).
Turning to ALSGLYYKNFHNSVKRY [SNM1], the protein stability index amounted to 1.59 ± 0.27 (doa10∆), 1.17 ± 0.17 (san1∆) and 1.22 ± 0.093 (ubr1∆).
